Test results reported in IntAct's records for PubMed 20890290.

B1: Protein dom34 (Schizosaccharomyces pombe (strain ATCC 38366 / 972)), Q9USL5 (parent)
chain: MKLIQKNIEKNGSGWITMCPEEPEDMWHLYNILQVGDQLKASTVRRVVKVGATGSTSGSRVVMKLRILVENMDFDTKAAQLHIKGRTTEYHPEVKMGSYHTLDLELHRNFTLYKNEWDAFALDRVDAACNPSRNAEIGAVVLDEGLANICLITDYMTILRQRIDQVIPRKRRGDSSAYQKGLDKFYDSVFQSINSEFDFDKLKVVILASPGFVARGLYDYIFSMAVKLDLKQIVKSKNKFVILHSSTGHIHSLNEILKDPAVESKLADTKYVQEIRVLNKFYDVMNEDDRKAWYGPNHVLKAFELGAIGELLISDSLFRSSDIATRKKWVSLVEGVKEINCPVYIFSSLHESGKQLDLLSGIAAILTYPVDEEDISEDEEDEESQNFEHS
partner: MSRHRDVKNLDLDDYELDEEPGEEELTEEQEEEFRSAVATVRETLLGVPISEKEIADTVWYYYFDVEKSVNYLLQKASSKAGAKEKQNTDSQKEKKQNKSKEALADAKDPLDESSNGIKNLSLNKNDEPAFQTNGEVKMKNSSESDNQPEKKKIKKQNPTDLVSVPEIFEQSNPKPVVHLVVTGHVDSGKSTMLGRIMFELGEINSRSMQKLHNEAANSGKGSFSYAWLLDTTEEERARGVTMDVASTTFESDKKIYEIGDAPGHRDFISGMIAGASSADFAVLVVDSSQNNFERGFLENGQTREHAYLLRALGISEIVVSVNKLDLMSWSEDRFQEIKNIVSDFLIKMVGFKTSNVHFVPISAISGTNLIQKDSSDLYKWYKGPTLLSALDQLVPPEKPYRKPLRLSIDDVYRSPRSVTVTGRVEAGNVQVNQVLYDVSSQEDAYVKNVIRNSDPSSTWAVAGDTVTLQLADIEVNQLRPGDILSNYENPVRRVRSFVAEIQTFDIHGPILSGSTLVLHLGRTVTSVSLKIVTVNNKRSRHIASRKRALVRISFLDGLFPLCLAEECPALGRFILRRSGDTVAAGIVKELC
B2: Elongation factor 1 alpha-like protein (Schizosaccharomyces pombe (strain ATCC 38366 / 972)), O74774 (parent)
chain: B1 partner
partner: B1 chain

Variants of: B1
Conditions: with hbs1_schpo hbs1, O74774

Effect of a mutation on the interaction, decreasing interaction:
R162A
D164A

Variants of: B2
Conditions: with dom34_schpo dom34, Q9USL5

Effect of a mutation on the interaction, decreasing interaction:
R541A
R480A
D557A
R523A
K531A
D411A
